Laboratory results: PMC9671094

Target: ApexGT2 trimer (HIV-1 isolate BG505)
Assay: cryo-EM structure

B1: PCT64 35S Fab (Fab, V domains shown)
VH: EVQLVESGGGLVKPGGSLRLACVGSEFTFSEAWMTWVRQAPGKGLEWVGHMRPTTEGGAKDYAAAVRGRFTIARDDSKSTLYLQMNSLKIEDTGVYYCMTGVERGDFWSDDYSQHYNTYLIDVWGKGTTVTVSS
VL: EIVLTQSPGTLSLSPGDRATLSCRATQSVGGDYFAWYQQRPGQSPRLLIYGTSRRAAGIPDRFSGSGSGTDFTLTIDRLEPEDFAVYYCRQYETSFTFGPGTKVDIK
stoichiometry N (Fab per trimer): 1
